Test [1] addresses PECAM-1–GFP (wild type, stably expressed in HL-60 cells) (human) (UniProt P16284). Kind of test: FRET or BRET; FLIM measurement of FRET between the GFP and RFP tags in HL-60 cells plated on poly-L-lysine-coated coverslips at 37°C for 5 min, fixed in 4% PFA (resting, not in TEM). In general terms: BRET reads energy transfer from a luciferase to a nearby fluorophore.
The target is the same in test [2]. Nature of the test: FRET or BRET; FLIM measurement of FRET between the GFP and RFP tags in dHL-60 cells perfused (1.5 dynes/cm2) over TNF-activated HUVEC monolayers, fixed in 4% PFA in mid-TEM; read at breached junctions.
Test [3] has the same target. Nature of the test: FRET or BRET; FLIM measurement of FRET between the GFP and RFP tags in dHL-60 cells perfused (1.5 dynes/cm2) over IL-1β-activated HUVEC monolayers, fixed in 4% PFA in mid-TEM; read at breached junctions.

With “L-selectin–RFP (wild type, stably expressed in HL-60 cells) (from UniProt P14151 39-372) (natural protein)”, the FRET efficiency in test [1] amounted to 0.982%; in test [2], 5.39%; in test [3], 1.21%.

Values taken from article PMC7888707.
